This note sets out measurements from doi:10.1101/2022.06.19.496723.

This test deals with NnlA (N-nitroglycine lyase) from Variovorax sp. strain JS1663, tag-free after TEV cleavage (Variovorax sp. strain JS1663). Kind of test: SEC.

The term stoichiometry N denotes a count of units in the complex or per binding partner. As to “NnlA (N-nitroglycine lyase) from Variovorax sp. strain JS1663, tag-free after TEV cleavage (enzyme)”, the stoichiometry N stood at 2.
